Data as given in patent US9005937B2, “Dual cofactor specific ribitol dehydrogenase and use thereof” (Konkuk University Industrial Cooperation Corp., priority 2011, dated 2015).
Residue numbers refer to the chain shown, from its start. In names and notes the source's numbering stands. Entries after “also recorded” stand apart in the source; their conditions may differ. Where two headings read alike, the source gives them in different places.

Legend:
ribitol dehydrogenase = assay type: biochemical, Zymomonas mobilis
[1] = target: T1, Zymomonas mobilis ribitol dehydrogenase, wild-type, SEQ ID NO: 4 (Zymomonas mobilis, UniProt Q5NQS1); assay: Dynamical (kinetic) parameters of ribitol dehydrogenase to coenzyme NAD(H)/NADP(H), wild-type; assay type: biochemical; conditions: NADP 0.01 to 3 mM
T1 sequence (Q5NQS1 74-338): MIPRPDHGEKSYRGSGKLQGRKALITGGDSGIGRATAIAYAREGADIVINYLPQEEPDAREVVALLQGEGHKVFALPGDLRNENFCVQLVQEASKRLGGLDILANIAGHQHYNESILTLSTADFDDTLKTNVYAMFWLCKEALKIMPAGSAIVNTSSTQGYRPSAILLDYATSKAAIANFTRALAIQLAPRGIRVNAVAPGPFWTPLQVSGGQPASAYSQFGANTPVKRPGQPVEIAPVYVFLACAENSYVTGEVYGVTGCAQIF
Experimental: The optimum pH on dehydrogenation activity of the ribitol dehydrogenase was measured using 20 mM of Tris-HCl buffer. The enzyme activity was determined by monitoring the change per minute in absorbance at 340 nm while the sample was reacted in the presence of NAD(H) and ribitol.
Then, dynamical parameters were measured through a nonlinear regression analysis.

[2] = substrate: NC(=O)c1ccc[n+]([C@@H]2O[C@H](COP(=O)(O)OP(=O)(O)OC[C@H]3O[C@@H](n4cnc5c(N)ncnc54)[C@H](OP(=O)(O)O)[C@@H]3O)[C@@H](O)[C@H]2O)c1; assay: Dynamical parameters to coenzyme, variant S156C; assay type: biochemical, Zymomonas mobilis; conditions: other: NADP 0.01 to 3 mM, ribitol, pH 9.0
Source text: (§1) There were no differences between the expression amount of various amino acid variants of Ser 156 and the expression amount of wide-type. The dynamical parameter of each of variants was confirmed using the above variants.

[3] = Production of L-ribulose from ribitol with cell bodies of recombinant strains expressing the variants; assay type: cell-based, E. coli; conditions: whole cells, 25° C., 6 hours
Experimental: The following experiments were performed in order to produce L-ribulose using a ribitol dehydrogenase variant having double coenzyme specificity. The variants prepared by using the method of Example 5-3 were expressed using the method of Example 2; the cell bodies were only collected by centrifuging (8000×g for 10 minutes) the recombinant strain culture solution; and then the cell bodies were washed with distilled water twice. The final Cell OD was measured and the same amount of cells was used for a production experiment. The ribitol and each of recombinant enzyme variants were subjected to an enzyme reaction in 20 mM of Tris-HCl buffer (pH 9.5) at a temperature of 25° C. for 6 hours.

[4] = substrate: NC(=O)c1ccc[n+]([C@@H]2O[C@H](COP(=O)(O)OP(=O)(O)OC[C@H]3O[C@@H](n4cnc5c(N)ncnc54)[C@H](OP(=O)(O)O)[C@@H]3O)[C@@H](O)[C@H]2O)c1; assay: Dynamical parameters to coenzyme, variant S156E; assay type: biochemical, Zymomonas mobilis; conditions: other: NADP 0.01 to 3 mM, ribitol, pH 9.0
Source text: as §1

[5] = substrate: NC(=O)c1ccc[n+]([C@@H]2O[C@H](COP(=O)(O)OP(=O)(O)OC[C@H]3O[C@@H](n4cnc5c(N)ncnc54)[C@H](OP(=O)(O)O)[C@@H]3O)[C@@H](O)[C@H]2O)c1; assay: Dynamical parameters to coenzyme, variant S156W; assay type: biochemical, Zymomonas mobilis; conditions: other: NADP 0.01 to 3 mM, ribitol, pH 9.0
Source text: as §1

[6] = substrate: NC(=O)c1ccc[n+]([C@@H]2O[C@H](COP(=O)(O)OP(=O)(O)OC[C@H]3O[C@@H](n4cnc5c(N)ncnc54)[C@H](OP(=O)(O)O)[C@@H]3O)[C@@H](O)[C@H]2O)c1; assay: Dynamical parameters to coenzyme, variant S156A; assay type: biochemical, Zymomonas mobilis; conditions: other: NADP 0.01 to 3 mM, ribitol, pH 9.0
Source text: as §1

[7] = substrate: NC(=O)c1ccc[n+]([C@@H]2O[C@H](COP(=O)(O)OP(=O)(O)OC[C@H]3O[C@@H](n4cnc5c(N)ncnc54)[C@H](OP(=O)(O)O)[C@@H]3O)[C@@H](O)[C@H]2O)c1; assay: Dynamical parameters to coenzyme, variant S156Y; assay type: biochemical, Zymomonas mobilis; conditions: other: NADP 0.01 to 3 mM, ribitol, pH 9.0
Source text: as §1

[8] = substrate: NC(=O)c1ccc[n+]([C@@H]2O[C@H](COP(=O)(O)OP(=O)(O)OC[C@H]3O[C@@H](n4cnc5c(N)ncnc54)[C@H](OP(=O)(O)O)[C@@H]3O)[C@@H](O)[C@H]2O)c1; assay: Dynamical parameters to coenzyme, variant S156G; assay type: biochemical, Zymomonas mobilis; conditions: other: NADP 0.01 to 3 mM, ribitol, pH 9.0
Source text: as §1

[9] = substrate: NC(=O)c1ccc[n+]([C@@H]2O[C@H](COP(=O)(O)OP(=O)(O)OC[C@H]3O[C@@H](n4cnc5c(N)ncnc54)[C@H](OP(=O)(O)O)[C@@H]3O)[C@@H](O)[C@H]2O)c1; assay: Dynamical parameters to coenzyme, variant S156D; assay type: biochemical, Zymomonas mobilis; conditions: other: NADP 0.01 to 3 mM, ribitol, pH 9.0
Source text: In addition, the present invention provides a ribitol dehydrogenase mutant selected from the group consisting of a) a mutant, in which serine, an amino acid at position 156 of the ribitol dehydrogenase having an amino acid sequence as set forth in SEQ ID NO: 4 is substituted with aspartic acid; and b) a mutant, in which tyrosine, an amino acid at position 51 of the ribitol dehydrogenase having an amino acid sequence as set forth in SEQ ID NO: 4 is substituted with aspartic acid and serine, an amino acid at position 156 is substituted with alanine.
The mutants have preferably amino acid sequences as set forth in SEQ ID NOS: 5 and 6, respectively, but the present invention is not limited thereto.
as §1

[10] = substrate: NC(=O)c1ccc[n+]([C@@H]2O[C@H](COP(=O)(O)OP(=O)(O)OC[C@H]3O[C@@H](n4cnc5c(N)ncnc54)[C@H](OP(=O)(O)O)[C@@H]3O)[C@@H](O)[C@H]2O)c1; assay: Dynamical parameters to coenzyme, variant S156T; assay type: biochemical, Zymomonas mobilis; conditions: other: NADP 0.01 to 3 mM, ribitol, pH 9.0
Source text: as §1

[11] = metal ion 10 mM, enzyme treated with 10 mM EDTA for 24 hours and dialyzed

Molecule: [Cl][Fe]([Cl])[Cl] [FeCl3]
- Relative activity (%) 10 mM (ribitol dehydrogenase; [11]): 0.2%

Molecule: [Ca+2].[Cl-].[Cl-] [CaCl2]
- Relative activity (%) 10 mM (ribitol dehydrogenase; [11]): 1.1%

Molecule: NC(=O)c1ccc[n+]([C@@H]2O[C@H](COP(=O)(O)OP(=O)(O)OC[C@H]3O[C@@H](n4cnc5c(N)ncnc54)[C@H](OP(=O)(O)O)[C@@H]3O)[C@@H](O)[C@H]2O)c1 [NADP^+]
- kcat (NADP^+) [1]: 2.79 ± 0.15 s⁻¹

Molecule: [Cl][Mn][Cl] [MnCl2]
- Relative activity (%) 10 mM (ribitol dehydrogenase; [11]): 100%
- activity of enzyme in the presence of metal ion (in words) (ribitol dehydrogenase; metal ion 10 mM, listed as Mn^2+): maximum enzyme activity; also recorded: the activity of enzyme was observed

Molecule: [Cl-].[Cl-].[Co+2] [CoCl2]
- Relative activity (%) 10 mM (ribitol dehydrogenase): 62.5%
- activity of enzyme in the presence of metal ion (in words) (ribitol dehydrogenase): maximum enzyme activity; also recorded: the activity of enzyme was observed

Molecule: [Cl-].[Cl-].[Mg+2] [MgCl2]
- Relative activity (%) 10 mM (ribitol dehydrogenase; [11]): 0.4%

Molecule: O=S(=O)([O-])[O-].[Cu+2] [CuSO4]
- Relative activity (%) 10 mM (ribitol dehydrogenase; [11]): 0.1%

Molecule: [Cl-].[Cl-].[Zn+2] [ZnCl2]
- Relative activity (%) 10 mM (ribitol dehydrogenase; [11]): 0.3%

B1: Zymomonas mobilis ribitol dehydrogenase (SEQ ID NO: 4) variant S156C (Zymomonas mobilis subsp. mobilis ZM4 = ATCC 31821; S229C) (protein)
chain: T1 sequence (Q5NQS1 74-338) with S156C
- Km [2]: 170 ± 20 µM
- kcat [2]: 2.05 ± 0.10 s⁻¹
- kcat/Km [2]: 12100 M⁻¹ s⁻¹

B2: S156D: mutant in which serine at position 156 of SEQ ID NO: 4 is substituted with aspartic acid (SEQ ID NO: 5) (protein)
chain: T1 sequence (Q5NQS1 74-338) with S156D, N248D
modifications: mutant
- L-ribulose produced, concentration ([3]; 20 mM Tris-HCl buffer pH 9.5, HPLC): 1.21 g/L
- conversion rate of L-ribulose in the whole cell level compared with wild-type (in words) ([3]; pH 9.5): higher

B3: Zymomonas mobilis ribitol dehydrogenase (SEQ ID NO: 4) variant S156E (Zymomonas mobilis subsp. mobilis ZM4 = ATCC 31821; S229E) (protein)
chain: T1 sequence (Q5NQS1 74-338) with S156E
- Km [4]: 350 ± 40 µM
- kcat [4]: 2.39 ± 0.15 s⁻¹
- kcat/Km [4]: 6830 M⁻¹ s⁻¹

B4: Zymomonas mobilis ribitol dehydrogenase (SEQ ID NO: 4) variant S156W (Zymomonas mobilis subsp. mobilis ZM4 = ATCC 31821; S229W) (protein)
chain: T1 sequence (Q5NQS1 74-338) with S156W
- Km [5]: 210 ± 30 µM
- kcat [5]: 2.05 ± 0.11 s⁻¹
- kcat/Km [5]: 9760 M⁻¹ s⁻¹

B5: Zymomonas mobilis ribitol dehydrogenase (SEQ ID NO: 4) variant S156A (Zymomonas mobilis subsp. mobilis ZM4 = ATCC 31821; S229A) (protein)
chain: T1 sequence (Q5NQS1 74-338) with S156A
- Km [6]: 390 ± 130 µM
- kcat [6]: 1.19 ± 0.07 s⁻¹
- kcat/Km [6]: 3050 M⁻¹ s⁻¹

B6: Zymomonas mobilis ribitol dehydrogenase (SEQ ID NO: 4) variant S156Y (Zymomonas mobilis subsp. mobilis ZM4 = ATCC 31821; S229Y) (protein)
chain: T1 sequence (Q5NQS1 74-338) with S156Y
- Km [7]: 230 ± 130 µM
- kcat [7]: 1.42 ± 0.16 s⁻¹
- kcat/Km [7]: 6170 M⁻¹ s⁻¹

B7: Zymomonas mobilis ribitol dehydrogenase (SEQ ID NO: 4) variant S156G (Zymomonas mobilis subsp. mobilis ZM4 = ATCC 31821; S229G) (protein)
chain: T1 sequence (Q5NQS1 74-338) with S156G
- Km [8]: 340 ± 70 µM
- kcat [8]: 0.72 ± 0.08 s⁻¹
- kcat/Km [8]: 2120 M⁻¹ s⁻¹

B8: Zymomonas mobilis ribitol dehydrogenase (SEQ ID NO: 4) variant S156D, SEQ ID NO: 5 (Zymomonas mobilis subsp. mobilis ZM4 = ATCC 31821; N321D/S229D) (protein)
chain: T1 sequence (Q5NQS1 74-338) with S156D, N248D
- Km [9]: 300 ± 30 µM
- kcat [9]: 2.46 ± 0.21 s⁻¹
- kcat/Km [9]: 8200 M⁻¹ s⁻¹

B9: Zymomonas mobilis ribitol dehydrogenase (SEQ ID NO: 4) variant S156T (Zymomonas mobilis subsp. mobilis ZM4 = ATCC 31821; S229T) (protein)
chain: T1 sequence (Q5NQS1 74-338) with S156T
- Km [10]: 220 ± 30 µM
- kcat [10]: 1.64 ± 0.22 s⁻¹
- kcat/Km [10]: 7450 M⁻¹ s⁻¹
